Measured values: patent WO2021228904A1 (dated 2021)

B1: COVA2-39 (antibody, V domains shown)
VH: QVQLVETGGGLIQPGGSLRLSCAASGFTVSSNYMSWVRQAPGKGLEWVSVIYTGGTTYYADSVKGRFTISRDNSKNTLYLQMNSLRAEDTAVYYCARAHVDTAMVESGAFDIWGQGTRVTVSS
VL: QSALTQPASVSGSPGQSITISCTGTSSDVGSYNLVSWYQQHPGKAPKLMIYEVTKRPSGVSNRFSGSKSGNTASLTISGLQAEDEADYYCCSYAGSSTWVFGGGTKLTVL
B2: SEQ ID NOs: 389/393 (HCVR/LCVR) (antibody, V domains shown)
VH: EVQLVESGAEVKKPGSSVKVSCKASGGTFSSYAISWVRQAPGQGLEWMGGIIPIFGTANYAQKFQGRVTITTDESTSTAYMELSSLRSEDTAVYYCARGPRYCSSTSCYAGVYFDYWGQGTRVTVSS
VL: not shown
B3: SEQ ID NOs: 469/473 (HCVR/LCVR) (antibody, V domains shown)
VH: QVQLVQSGAEVKKPGESLRISCKGSGYSFTSHWISWVRQMPGKGLEWMGRIDPSDSYTNYSPSFQGHVTISADKSISTAYLQWSSLKASDTAMYYCARLKVITIFGVVRDDYGMDVWGQGTTVTVSS
VL: QSALTQPASVSGSPGQSITISCTGTSSDVGSYNLVSWYQQHPGKAPKLMIYDSSKRPSGVSNRFSGSKSGNTASLTISGLQAEDEADYYCCSYAGSVFGGGTKLTVL
B4: COVA2-29 (antibody, V domains shown)
VH: EVQLVESGGGVVQPGRSLRLSCAASGFTFSSYTMHWVRQAPGKGLEWVAVISYDGSNKYYADSVKGRFTISRDNSKNTLYLQMNSLRAEDTAVYYCASLPVVPAAIGPLPAFDIWGQGTMVTVSS
VL: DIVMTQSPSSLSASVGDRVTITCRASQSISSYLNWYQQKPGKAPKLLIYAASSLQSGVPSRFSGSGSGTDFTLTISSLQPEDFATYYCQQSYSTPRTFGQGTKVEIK
B5: COVA1-16 (antibody, V domains shown)
VH: QVQLVQSGAEVKKPGASVKVSCKASGYTFTSYYMHWVRQAPGQGLEWMGIINSSGGSTSYAQKFQGRVTMTRDTSTSTVYMELSSLRSEDTAVYYCARPPRNYYDRSGYYQRAEYFQHWGQGTLVTVSS
VL: DIQLTQSPSSLSASVGDRVTITCQASQDISNYLNWYQQRPGKAPKLLIYDASNLETGVPSRFSGSGSGTDFTFTISSLQPEDIATYYCQQYDNPPLTFGGGTKLEIK
B6: 002_P1D6 (antibody, V domains shown)
VH: EVQLLESGAEVKKPGESLKISCKGSGYSFTSYWIGWVRQMPGKGLEWMGIIYPGDSDTRYSPSFQGQVTISADKSISTAYLQWSSLKASDTAMYYCARHMRPSIAARPGYQYYMDVWGKGTRVTVSS
VL: not shown
B7: 002_P2H1 (antibody, V domains shown)
VH: EVQLVESGGGLIQPGGSLRLSCAASGFTVSSNYMSWVRQAPGKGLEWVSVIYSGGSTYYADSVKGRFTISRDNSKNTLYLQMNSLRAEDTAVYYCASPLLLTPPDYYYYMDVWGKGTMVTVSS
VL: DVVMTQSPSSLSVSVGDRVTITCRASQGIRNDLGWYQQKPGKAPKRLIYAASSLQSGVPSRFSGSGSGTEFTLTISSLQPEDFATYYCLQHNSYLWTFGQGTKLEIK
B8: 002_P1H2 (antibody, V domains shown)
VH: EVQLVESGAEVKKPGSSVKVSCKASGGTLSSYAISWVRQAPGQGLEWMGGIIPIFGTANYAQKFQGRVTITTDESTSTAYMELSSLRSEDTAVYYCARGPRGCSSTSCYGSYFDYWGQGTLVTVSS
VL: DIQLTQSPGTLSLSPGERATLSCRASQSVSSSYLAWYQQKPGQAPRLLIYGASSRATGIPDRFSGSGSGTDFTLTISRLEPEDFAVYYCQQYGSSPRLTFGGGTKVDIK
B9: COVA2-02 (antibody, V domains shown)
VH: VQLQQESGPGLVKPSETLSLTCTVSGGSISSSSYYWGWIRQPPGKGLEWIGSIYYSGSTYYNPSLKSRVTISVDTSKNQFSLKLSSVTAADTAVYYCARRSTSRWGYYYMDVWGKGTRVTVSS
VL: DIVMTQSPSSLSASVGDRVTITCRASQSISNYLNWYQQKPGKAPKLLLYAASDLQSGVPSRFSGSGSGTDFTLTISSLQPEDFATYYCQQSYSTHMSTFGQGTKVDIK
B10: SEQ ID NOs: 233/237 (HCVR/LCVR) (antibody, V domains shown)
VH: EVQLVESGGGLVQPGGSLRLSCAASGFTFSSYSMNWVRQAPGKGLEWVSYISSSSSTIYYADSVKGRFTISRDNAKNSLYLQMNSLRAEDTAVYYCAREANSDFWSGYLGYFDYWGQGTLVTVSS
VL: EIVMTQSPATLSLSPGERATLSCRASQSVSSYLAWYQQKPGQAPRLLIYDASNRATGIPARFSGSGSGTDFTLTISSLEPEDFAVYYCQQRSNWPQVTFGQGTRLEIK

Biological target: stabilized prefusion SARS-CoV-2 S ectodomain (SARS-CoV-2 (Wuhan-Hu-1), UniProt P0DTC2 15-1138)
Experiment: SPR

Binder	Kd
B1	≤ 1 nM
B2	≤ 1 nM
B3	≤ 1 nM
B4	≤ 1 nM
B5	≤ 1 nM
B6	≤ 1 nM
B7	≤ 1 nM
B8	≤ 1 nM
B9	≤ 1 nM
B10	≤ 1 nM
